Data from article PMC5484413 (Nature structural & molecular biology, 2016).
Positions count from the first letter of the chain named. In names and notes the source's numbering stands.

T1: GST-NPP-14 (C. elegans, UniProt Q17602 1-1390)
T1 sequence (looked up): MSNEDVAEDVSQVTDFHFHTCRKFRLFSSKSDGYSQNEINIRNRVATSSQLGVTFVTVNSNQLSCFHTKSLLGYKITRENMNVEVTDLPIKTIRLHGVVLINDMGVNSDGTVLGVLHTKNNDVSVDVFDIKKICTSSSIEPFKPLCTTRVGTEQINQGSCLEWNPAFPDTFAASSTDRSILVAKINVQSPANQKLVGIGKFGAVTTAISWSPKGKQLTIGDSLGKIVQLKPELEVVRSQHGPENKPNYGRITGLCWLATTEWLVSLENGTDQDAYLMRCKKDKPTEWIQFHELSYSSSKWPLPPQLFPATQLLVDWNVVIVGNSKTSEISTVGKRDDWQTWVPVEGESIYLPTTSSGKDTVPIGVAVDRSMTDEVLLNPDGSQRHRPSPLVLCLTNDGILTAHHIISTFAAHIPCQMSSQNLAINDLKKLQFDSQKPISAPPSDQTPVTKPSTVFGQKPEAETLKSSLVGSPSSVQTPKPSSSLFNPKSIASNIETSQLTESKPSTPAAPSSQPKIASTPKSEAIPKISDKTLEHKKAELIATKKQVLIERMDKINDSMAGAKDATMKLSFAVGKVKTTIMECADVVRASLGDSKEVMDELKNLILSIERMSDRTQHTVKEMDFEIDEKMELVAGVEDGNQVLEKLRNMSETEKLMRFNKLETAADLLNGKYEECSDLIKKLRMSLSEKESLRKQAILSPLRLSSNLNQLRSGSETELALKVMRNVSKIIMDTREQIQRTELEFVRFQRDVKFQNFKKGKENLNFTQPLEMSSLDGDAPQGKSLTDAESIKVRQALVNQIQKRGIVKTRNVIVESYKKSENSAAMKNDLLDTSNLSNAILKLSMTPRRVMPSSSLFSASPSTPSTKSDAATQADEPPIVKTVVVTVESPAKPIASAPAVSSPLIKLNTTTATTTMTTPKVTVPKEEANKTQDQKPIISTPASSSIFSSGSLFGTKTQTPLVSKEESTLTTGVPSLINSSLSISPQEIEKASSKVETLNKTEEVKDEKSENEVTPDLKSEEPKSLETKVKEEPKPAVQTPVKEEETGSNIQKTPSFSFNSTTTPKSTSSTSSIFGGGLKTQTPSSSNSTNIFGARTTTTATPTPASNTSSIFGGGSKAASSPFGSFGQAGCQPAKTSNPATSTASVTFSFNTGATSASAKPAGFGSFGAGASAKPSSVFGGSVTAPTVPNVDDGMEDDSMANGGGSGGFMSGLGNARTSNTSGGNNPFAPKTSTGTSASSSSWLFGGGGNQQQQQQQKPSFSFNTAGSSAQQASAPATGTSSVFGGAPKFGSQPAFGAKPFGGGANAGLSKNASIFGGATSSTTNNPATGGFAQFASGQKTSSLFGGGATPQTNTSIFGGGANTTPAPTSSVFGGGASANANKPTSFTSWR

B1: CED-3(1-220)-His6 (wild-type) (domain or fragment, C. elegans, UniProt P42573 1-220, looked up)
chain: MMRQDRRSLLERNIMMFSSHLKVDEILEVLIAKQVLNSDNGDMINSCGTVREKRREIVKAVQRRGDVAFDAFYDALRSTGHEGLAEVLEPLARSVDSNAVEFECPMSPASHRRSRALSPAGYTSPTRVHRDSVSSVSSFTSYQDIYSRARSRSRSRALHSSDRHNYSSPPVNAFPSQPSSANSSFTGCSSLGYSSSRNRSFSKASGPTQYIFHEEDMNFV
B2: CED-3(1-220)-His6 G65R (domain or fragment, C. elegans, UniProt P42573 1-220, looked up)
chain: B1 chain with G65R
B3: CED-3(1-220)-His6 L27F (domain or fragment, C. elegans, UniProt P42573 1-220, looked up)
chain: B1 chain with L27F
B4: CED-3(1-220)-His6 L30F (domain or fragment, C. elegans, UniProt P42573 1-220, looked up)
chain: B1 chain with L30F

molecular target: T1, GST-NPP-14; test: pull-down

Binding result, binds:
B1
B2
B3
B4
